B1: Centrosome-associated zinc finger protein Cp190 (Drosophila melanogaster (Fruit fly)), Q24478 (parent)
chain: MGEVKSVKVDNWGVFFLQKLQNFFNKTDYCDLTLQFRDNSQLKVHRLVLSACTDYFNVLEQTCEIVDDALIMPNEFQADVVVPIVNFMYTGTLEFELKMYGKLLRTAKEMNMTVLLKLLEAHRRTMENVNRQQRPPSPKGIRRRTVGQPSSGLPQQRVLGPSPQSRNVATPIAQRANTQRGSTGNTMSRTSGGSNRSPYGDSSNVKQEPTSPFEQLRKGYNNNKRPAQTSLLSPPSKKPSLEEVKEFAEQQRMRKQIAAEYGDNDPEYDGGMLYDDVHAGDDDDDDMPPQPSTSKQQSPQGTQTQLEHGSTTIILKQDSPSQTPTIIVKDSSNAKLNHTKIIAEVLRQYPHIVKGHKNIKLKIMPNTPAAPTEKSAPATVKPPANQSSATTSPHKKLHVSFKADKSTPLITAQQKAASSQQKSGTSQTTGNQGTGANPPANTAAAQKRRIDSKTMHALIAQGAENTTGPWLCLRCGVNGRPISIPSYRGFRRHLINTHKETIDPALCEHCGWRSVNNRELHFHMYMEHQTKSLLYTFAECALCNQSYRTKGELEAHINEVHTDDNKQQCIYCNKVFEQELQLYRHMKSYHKEQALEDGIIDETDEEFLGSQDEEEEAEGDEEQEPEQTGKVRILSDISLPATSAITVQQAQQEQLQEEDVEQVQQEVKFVGADGNEVELTDEQRKEILSQLNQQQAGATAGGVVMVLSEPEAEHVKQETDEKSLAGTEEEYDDSQIYSELGAADSVESAKKNIADESKESIDNLEWAENLIAESEEQSNKEPKSDKPRDDISEKLKELTGDWTEDENDDDVDDKPATAELASELANKDPEPTVHEEEDDIDLALQSLHKGPEEATEEKASEESVTSADDAVDAVPNINSQPEKMDVDSEAADEKASKAEVQIKKEAELENDQEEFIKEDSPIPHSDSVAELREAVTASEGEDDVHLEADNIRKELLDELIAEAEKPDQEKDIVQSEENATTEALDRSVTDEDDLVPPTQVSTEQMEIDEPAAEKAAENNEDTRTADEKEAVEDKPNQTQDVTTAEKPTLESAKAGDEATSGEAASVDKVKSLISEWGDDDEDEDENGVSAAAKEEL
partner: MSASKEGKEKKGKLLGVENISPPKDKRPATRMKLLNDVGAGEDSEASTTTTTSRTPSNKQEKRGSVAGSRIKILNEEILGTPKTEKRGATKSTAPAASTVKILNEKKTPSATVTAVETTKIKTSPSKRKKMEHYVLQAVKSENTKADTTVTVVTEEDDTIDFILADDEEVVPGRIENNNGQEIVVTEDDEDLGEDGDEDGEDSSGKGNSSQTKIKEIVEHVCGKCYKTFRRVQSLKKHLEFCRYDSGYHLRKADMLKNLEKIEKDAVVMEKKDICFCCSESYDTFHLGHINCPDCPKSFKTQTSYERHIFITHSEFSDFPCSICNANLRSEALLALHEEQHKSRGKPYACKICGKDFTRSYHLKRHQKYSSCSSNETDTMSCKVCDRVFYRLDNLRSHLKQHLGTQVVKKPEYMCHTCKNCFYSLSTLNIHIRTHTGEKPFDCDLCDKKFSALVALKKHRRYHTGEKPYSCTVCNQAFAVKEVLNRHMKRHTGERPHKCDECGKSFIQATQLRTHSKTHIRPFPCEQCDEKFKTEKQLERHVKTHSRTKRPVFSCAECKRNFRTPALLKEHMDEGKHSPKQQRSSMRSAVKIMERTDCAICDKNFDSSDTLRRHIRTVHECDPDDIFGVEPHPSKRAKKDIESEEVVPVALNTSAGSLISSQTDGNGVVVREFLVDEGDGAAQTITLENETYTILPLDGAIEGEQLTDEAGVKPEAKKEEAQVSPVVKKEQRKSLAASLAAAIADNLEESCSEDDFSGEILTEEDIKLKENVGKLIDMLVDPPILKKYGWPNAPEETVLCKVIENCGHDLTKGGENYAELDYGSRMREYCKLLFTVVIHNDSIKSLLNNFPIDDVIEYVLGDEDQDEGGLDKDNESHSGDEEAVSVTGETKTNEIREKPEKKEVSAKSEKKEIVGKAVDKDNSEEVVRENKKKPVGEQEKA
B2: Centrosome-associated zinc finger protein Cp190 (Drosophila melanogaster (Fruit fly)), Q24478 (parent)
chain: B1 chain
partner: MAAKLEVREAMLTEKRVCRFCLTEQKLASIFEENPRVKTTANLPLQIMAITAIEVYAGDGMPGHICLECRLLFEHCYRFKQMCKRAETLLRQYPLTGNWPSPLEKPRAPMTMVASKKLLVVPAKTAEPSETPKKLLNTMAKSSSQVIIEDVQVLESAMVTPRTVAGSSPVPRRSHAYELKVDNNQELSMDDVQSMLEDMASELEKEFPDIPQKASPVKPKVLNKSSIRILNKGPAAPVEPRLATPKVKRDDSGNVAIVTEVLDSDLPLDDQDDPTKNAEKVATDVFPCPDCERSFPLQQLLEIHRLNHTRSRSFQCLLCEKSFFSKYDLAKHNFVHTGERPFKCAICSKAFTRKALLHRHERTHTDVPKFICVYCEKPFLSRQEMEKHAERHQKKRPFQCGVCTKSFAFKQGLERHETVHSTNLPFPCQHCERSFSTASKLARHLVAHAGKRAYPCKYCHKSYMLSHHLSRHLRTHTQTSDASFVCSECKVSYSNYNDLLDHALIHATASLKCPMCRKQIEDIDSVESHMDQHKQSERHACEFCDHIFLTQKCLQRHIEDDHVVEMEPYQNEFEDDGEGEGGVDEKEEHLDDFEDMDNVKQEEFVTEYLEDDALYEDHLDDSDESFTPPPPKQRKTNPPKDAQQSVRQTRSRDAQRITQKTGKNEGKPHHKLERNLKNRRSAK

The first test covers variants of B1. The following applies: with suhw_drome su(Hw).
Regarding V114A, the “effect of a mutation on the interaction” value was “with no effect”.

For V114N, the “effect of a mutation on the interaction” value is “with no effect”.

In the case of K117S, the “effect of a mutation on the interaction” value was “with no effect”.

Consider V7A, for which the “effect of a mutation on the interaction” value is “with no effect”.

For the variant K19A, the “effect of a mutation on the interaction” value was “with no effect”.

Another test covers variants of B1. The following applies: with suhw_drome su(Hw). The source holds these as a separate data set.
V114A: the “effect of a mutation on the interaction” value is listed as “disrupting interaction strength”.

Consider V114N, for which the “effect of a mutation on the interaction” value is reported as “disrupting interaction strength”.

Regarding K117S, the “effect of a mutation on the interaction” value is “disrupting interaction strength”.

Consider L118A, for which the “effect of a mutation on the interaction” value is reported as “disrupting interaction strength”.

With K19A, the “effect of a mutation on the interaction” value is given as “disrupting interaction strength”.

F15A: the “effect of a mutation on the interaction” value is on record as “disrupting interaction strength”.

Variants of B1 are the subject of another test. The following applies: with suhw_drome su(Hw). This is another data set of the same source.
For the variant V7A, the “effect of a mutation on the interaction” value is recorded as “disrupting interaction strength”.

The variants in the next test derive from B1. The settings on record: with suhw_drome su(Hw). This is another data set of the same source.
L118A: the “effect of a mutation on the interaction” value was “with no effect”.

For F15A, the “effect of a mutation on the interaction” value is recorded as “with no effect”.

The next test covers variants of B2. The settings on record: with pita_drome pita.
Regarding V7A, the “effect of a mutation on the interaction” value is “disrupting interaction strength”.

Take L118A: the “effect of a mutation on the interaction” value is listed as “disrupting interaction strength”.

In a further test the parent is B2. The following applies: with pita_drome pita. The source holds these as a separate data set.
In the case of V7A, the “effect of a mutation on the interaction” value was “with no effect”.

The next test covers variants of B2. The settings on record: with pita_drome pita. The source holds these as a separate data set.
As to L118A, the “effect of a mutation on the interaction” value is listed as “with no effect”.

Take F15A: the “effect of a mutation on the interaction” value is reported as “with no effect”.

For the variant K117S, the “effect of a mutation on the interaction” value is on record as “with no effect”.

For the variant K19A, the “effect of a mutation on the interaction” value was “with no effect”.

As to V114N, the “effect of a mutation on the interaction” value is “with no effect”.

V114A: the “effect of a mutation on the interaction” value was “with no effect”.

The variants in a further test derive from B2. The following applies: with pita_drome pita. The source holds these as a separate data set.
As to F15A, the “effect of a mutation on the interaction” value was “disrupting interaction strength”.

In the case of K117S, the “effect of a mutation on the interaction” value is reported as “disrupting interaction strength”.

For the variant K19A, the “effect of a mutation on the interaction” value is given as “disrupting interaction strength”.

For the variant V114N, the “effect of a mutation on the interaction” value was “disrupting interaction strength”.

As to V114A, the “effect of a mutation on the interaction” value is “disrupting interaction strength”.

(Values after IntAct's records for PubMed 34830280.)
